Each block holds one substance with its values, some of them ahead of it.
What was measured:
[1] = target: PD-1 on primary human CD8+ T cells (human (endogenous in primary T cells of donors)) (UniProt Q15116)
[2] = target: PD-1 on primary human CD8+ T cells (human (endogenous in primary T cells of donors)) (UniProt Q15116); remark: listed apart in the source
[3] = target: PD-1 on IcAR-PD-1 cells (Immune Checkpoint Artificial Reporter overexpressing PD-1) (human) (UniProt Q15116)
[4] = target: PD-1 on IcAR-PD-1 cells (Immune Checkpoint Artificial Reporter overexpressing PD-1) (human) (UniProt Q15116); remark: listed apart in the source
[5] = target: PD-1 on IcAR-PD-1 cells (Immune Checkpoint Artificial Reporter overexpressing PD-1) (human) (UniProt Q15116); remark: listed apart in the source
[6] = target: PD-1 on IcAR-PD-1 cells (Immune Checkpoint Artificial Reporter overexpressing PD-1) (human) (UniProt Q15116); remark: listed apart in the source
[7] = IcAR-PD-1 mIL-2 with ICBs, A375 and A549 cells; settings: glycan lost; control: WT PD-L1
[8] = PD-L1 ELISA of cell lysates, MDA-MB231 and MCF7; settings: glycan lost; control: WT PD-L1
[9] = surface PD-L1 flow cytometry, MCF7; settings: glycan lost; control: WT PD-L1, MCF7
[10] = EV-bound PD-L1 ELISA after ultracentrifugation; settings: glycan lost; control: WT PD-L1
[11] = surface PD-L1 flow cytometry, MDA-MB231; settings: glycan lost; control: WT PD-L1, MDA-MB231
[12] = total-cellular/membrane PD-L1 ratio, flow cytometry, fixed MCF7; settings: glycan lost; control: WT PD-L1, MCF7
[13] = soluble PD-L1 ELISA of supernatants, MDA-MB231 and MCF7; settings: glycan lost; control: WT PD-L1
[14] = total-cellular/membrane PD-L1 ratio, flow cytometry, fixed MDA-MB231; settings: glycan lost; control: WT PD-L1, MDA-MB231
[15] = target: PD-1 on IcAR-PD-1 cells (Immune Checkpoint Artificial Reporter overexpressing PD-1) (human) (UniProt Q15116); remark: listed apart in the source

percent of CD107a+ cells among CD8+ PD-1+ TCM cells (degranulation) after 4 h co-culture of anti-hCD3-activated PBMCs with MCF7 cells [2]: 3.1% | percent of CD107a+ cells among CD8+ PD-1+ TCM cells (degranulation) after 4 h co-culture of anti-hCD3-activated PBMCs with MDA-MB231 cells [2]: 3.7% | percent blocking of the mIL-2 signal of IcAR-PD-1 cells by Cemiplimab (anti-PD-1, 10 µg/mL), fixed MCF7 cells [3]: 53% | percent blocking of the mIL-2 signal of IcAR-PD-1 cells by Cemiplimab (anti-PD-1, 10 µg/mL), fixed MDA-MB231 cells [3]: 19.6% | percent blocking of the mIL-2 signal of IcAR-PD-1 cells by Nivolumab (anti-PD-1, 10 µg/mL), fixed MCF7 cells [3]: 98.6% | percent blocking of the mIL-2 signal of IcAR-PD-1 cells by Nivolumab (anti-PD-1, 10 µg/mL), fixed MDA-MB231 cells [3]: 83.2% | percent blocking of the mIL-2 signal of IcAR-PD-1 cells by Pembrolizumab (anti-PD-1, 10 µg/mL), fixed MCF7 cells [3]: 100% | percent blocking of the mIL-2 signal of IcAR-PD-1 cells by Pembrolizumab (anti-PD-1, 10 µg/mL), fixed MDA-MB231 cells [3]: 91.6% | percent blocking of the mIL-2 signal of IcAR-PD-1 cells by the anti-PD-1 antibody Nivolumab (1.5-40 µg/mL), MCF7 cells [4]: > 50%
Substance: PD-L1 N35A glycosylation mutant (from UniProt Q9NZQ7 19-290) (ligand)
percent lysis of MCF7 target cells by PBMCs (killing assay) [1]: 3.8% | percent lysis of MDA-MB231 target cells by PBMCs (killing assay) [1]: 12.2%

percent of CD107a+ cells among CD8+ PD-1+ TCM cells (degranulation) after 4 h co-culture of anti-hCD3-activated PBMCs with MCF7 cells [2]: 6.1% | percent of CD107a+ cells among CD8+ PD-1+ TCM cells (degranulation) after 4 h co-culture of anti-hCD3-activated PBMCs with MDA-MB231 cells [2]: 10.3% | mIL-2 response of IcAR-PD-1 cells incubated 24 h with formalin-fixed MCF7 cells, no antibody; fold reduction against PD-L1WT (fold reduction) [5]: 22 | mIL-2 response of IcAR-PD-1 cells incubated 24 h with formalin-fixed MDA-MB231 cells, no antibody; fold reduction against PD-L1WT (fold reduction) [5]: 10 | percent blocking of the mIL-2 signal of IcAR-PD-1 cells by anti-PD-1 antibodies Pembrolizumab, Nivolumab, Cemiplimab, all concentrations, MDA-MB231 and MCF7 cells [6]: 100%
Substance: PD-L1 Nx4 mutant (all four N-glycosylation sites replaced by alanine) (from UniProt Q9NZQ7 19-290) (ligand)
percent lysis of MCF7 target cells by PBMCs (killing assay) [1]: 7% | percent lysis of MDA-MB231 target cells by PBMCs (killing assay) [1]: 39.1%

Substance: PD-L1: N35A
other: antibody blockade of PD-L1/PD-1 interaction [7]: decreases | expression_or_secretion [8]: no change | expression_or_secretion, fold_change [9]: no change | expression_or_secretion [10]: increases | expression_or_secretion, fold_change [11]: no change | localisation_or_trafficking [12]: no change | expression_or_secretion [13]: increases, decreased by approximately 35% in MDA-MB231 PD-L1N35A cells and about 45% in MCF7 PD-L1N35A cells | localisation_or_trafficking, fold_change [14]: no change, a slight increase in total-cellular PD-L1 levels was observed in PD-L1N35A mutant MDA-MB231 cells

Substance: PD-L1: N192A
expression_or_secretion, fold_change [9]: no change | expression_or_secretion, fold_change [11]: no change

Substance: PD-L1: N200A
expression_or_secretion, fold_change [9]: no change | expression_or_secretion, fold_change [11]: no change

Substance: PD-L1: N219A
expression_or_secretion, fold_change [9]: no change | expression_or_secretion, fold_change [11]: no change

Substance: WT PD-L1 (programmed death-ligand 1) (from UniProt Q9NZQ7 19-290)
concentration of the anti-PD-1 antibody Pembrolizumab that completely blocked the mIL-2 signal of IcAR-PD-1 cells, MDA-MB231 and MCF7 cells [15]: 20 µg/mL

Source: PMC12065222
